assay: soluble on expression in E. coli; label from the status in PepcDB or PDB records

Sequence | soluble on expression in E. coli
MQREKVDVLVIGAGPAGTVAASLVNKSGFKVKIVEKQKFPRFVIGESLLPRCMEHLDEAGFLDAVKAQGFQQKFGAKFVRGKEIADFNFSDQFSNGWNWTWQVPRGNFDKTLADEAARQGVDVEYEVGVTDIKFFGTDSVTTIEDINGNKREIEARFIIDASGYGRVIPRMFGLDKPSGFESRRTLFTHIKDVKRPVAAEMEGNRITAVVHKPKVWIWVIPFSNGNTSVGFVGEPSYFDEYTGTPEERMRAMIANEGHIAERFKSEEFLFEPRTIEGYAISASKLYGDGFVLTGNATEFLDPIFSSGATFAMESGSKGGKLAVQFLKGEEVNWEKDFVEHMMQGIDTFRSFVTGWYDGTLHAVFFAKNPDPDHKRMICSVLAGYVWDKNNPFVKKHNTILKTLAKVIQMGEEALEHHHHHH | soluble
MQRIIKNNEVIDETWHLLPKDTTLDSLSNCDDLIVPLALWREHAHALKARDGGLGVWLDSDEEAEEIGEDVDQFQVIALNFPAFTDGRSFSNARLLRDRYGFKGELRAIGDVLRDQLFYMRRCGFDAFAVRADKDPYDALEGLKDFSVTYQAATDEPLPLFRRR | not soluble
MQSAELKQFVVDKIDDLKARDVVVIDVSNQSNITDYMVICSGTSKTHVKAIAENLVIEAKAAGIPPIGIEGRDSSEWVLVDMGNVILHVMQDQTRDFYQLEKLWSEKQA | soluble
MQSIKGNHLVKVYDYQEDGSVLLTCDAEAKNITWFKDGKMIGFLTEDKKKWNLGSNAKDPRGMYQCKGSQNKSKPLQVYYRMGSADDAKKDAAKKDDAKKDDAKKDGSDGNEEMGGITQTPYKVSISGTTVILTCPQYPGSEILWQHNDKNIGGDEDDKNIGSDEDHLSLKEFSELEQSGYYVCYPRGSKPEDANFYLYLRARV | soluble
MQSLSPTSRYLQALNEGTHQPDDVQKEAVDRLETLYQALTAKKSSATPPGGLIARLGKLLGKNEPDAQIPVRGLYMWGGVGRGKTWLMDLFYHSLPGERKLRLHFHRFMLRVHEELTALQGQIDPLDIIADRFKTETDVLCFDEFFVTDITDAMLLGGLMKALFARGITLVATSNIPPEELYRNGLQRARFLPAIDAIKQHCDIMNVDAGVDYRLRTLTQAHLWLTPLNDETRRQMDKLWLALAGAAREHAPTLEINHRPLSTLGVENQTLAVSFATLCVEARSQHDYIALSRLFHTVLLFDVPVMTPLMENEARRFIALVDEFYERHVKLVVSAAAPLYEIYQGERLKFEFQRCLSRLQEMQSAEYLKREHMPMAGDPLEHHHHHH | not soluble
MQSNKAFNLEKQNHTPRKHHQHHHQQHHQQQQQQQQQQPPPPIPANGQQASSQNEGLTIDLKNFRKPGEKTFTQRSRLFVGNLPPDITEEEMRKLFEKYGKAGEVFIHKDKGFGFIRLETRTLAEIAKVELDNMPLRGKQLRVRFACHSASLTVRNLPQYVSNELLEEAFSVFGQVERAVVIVDDRGRPSGKGIVEFSGKPAARKALDRCSEGSFLLTTFPRPVTVEPMDQLDDEEGLPEKLVIKNQQFHKEREQPPRFAQPGSFEYEYAMRWKALIEMEKQQQDQVDRNIKEAREKLEMEMEAARHEHQVMLMRQDLMRRQEELRRMEELHNQEVQKRKQLELRQEEERRRREEEMRRQQEEMMRRQQEGFKGTFPDAREQEIRMGQMAMGGAMGINNRGAMPPAPVPPGTPAPPGPATMMPDGTLGLTPPTTERFGQAATMEGIGAIGGTPPAFNRPAPGAEFAPNKRRRY | soluble
MQSSNGEHHQQKQTPYFMNAPCDPALLALAQQTFLGFQPQKNMYQHGFPPMLPHRNLIPSLAAAIPEMDKLMLEEPIEAGSMPYRRATNKNISVSDDSFNNMHRSSSSSQYRRHSAQWETMTDDERESVQRQKRKEEAFKTALCDAFKRSGSCPYGEACRFAHGENELRMPSQPRGKAHPKYKTQLCDKFSNFGQCPYGPRCQFIHKLKKGLPLSEYNRALQEGEISPARDDEITNPDESSSQVEDLSELHHRQHQQQQQYQQRYRRPPFNNFHDMSDSGYSAPRRRLHHQFEHLGSEQQQQQQQQTPAPKIVYPSMQVVNIEMATGDGPKRSDNHHYHHHHHQRRHIPAPPSTGPLSSLIDQADYEASMASGKMFGKPENIRTYGAMIRANEEHVERNQTGVVKKERATVLPKRDLSLIREEDTLLVDGSHLNMTSSAILPAHQIPSTTTTSTSSPVQEQPWYEKIFGKMTMIQEESSMGGEDDDAHEDHYSR | not soluble
MQSTPKPFDIEQPSLRVFLPAPELATGRAVVACPGGGYSGLAVNHEGYDWAPYFNKQGIALIVLKYRMPKGDRTLPISDAEAAMKMVRDSADVWNLNPNDIGIMGSSAGGHLASTIATHAPEALRPNFQILFYPVITMDKSFTHMGSHDNLLGKDASADLEKEFSNEKQVTKETPRAFIVYSDDDKVVPPANGVNYYLALNKKGVPSVLHIYPTGGHGWGIREDFLEHHHHHH | not soluble
MQTDIHDEPVNLGFGVQFEPDDLYRLRSQFLPLGKIGGKPSWLNPKNLPKSADLLCNVCEKPLCFLMQVSANGGINDPPHAFHRSLFLFVCRNPSCSRTNDAANLKAFRCQLPRANDYYSFDGPMDPDLDGDVADPRAPADGPGLCRICGCSAAKKCAKCQVARYCSQAHQVIDWPAHKLECAKAATDGSITDEPKNPRNAFCFKEFGVEIDQEYMPANLFDGLSDDEGDEEEEEGNDEDETEEEKKARIREFEKFVKENKGKNADMTKEDLDEATAEQPKDIDFDKFNRLVNLQPDQIIRYKRYGQPLRATGLSELPEVVEPCELCGAPRRFEMQLMPHLLSLIDVDAIGQSIDWASVYVYTCSASCQIADDGYAKEFVAKQDFL | not soluble
MQTFQADLAIVGAGGAGLRAAIAAAQANPNAKIALISKVYPMRSHTVAAEGGSAAVAQDHDSFEYHFHDTVAGGDWLCEQDVVDYFVHHCPTEMTQLELWGCPWSRRPDGSVNVRRFGGMKIERTWFAADKTGFHMLHTLFQTSLQFPQIQRFDEHFVLDILVDDGHVRGLVAMNMMEGTLVQIRANAVVMATGGAGRVYRYNTNGGIVTGDGMGMALSHGVPLRDMEFVQYHPAGLPGSGILMTEGCRGEGGILVNKNGYRYLQDYGMGPETPLGEPKNKYMELGPRDKVSQAFWHEWRKGNTISTPRGDVVYLDLRHLGEKKLHERLPFICELAKAYVGVDPVKEPIPVRPTAHYTMGGIETDQNCETRIKGLFAVGECSSVGLHGANRLGSNSLAELVVFGRLAGEQATERAATAGNGNEAAIEAQAAGVEQRLKDLVNQDGGENWAKIRDEMGLAMEEGCGIYRTPELMQKTIDKLAELQERFKRVRITDTSSVFNTDLLYTIELGHGLNVAECMAHSAMARKESRGAHQRLDEGCTERDDVNFLKHTLAFRDADGTTRLEYSDVKITTLPPAKRVYGGEADAADKAEAANKKEKANG | soluble
MQTGNGEYHMGNTMTKAIYEKFKSATPYGNTVATGAIPTETVDIAVNVGGFKVGDQNYPINPKVTFTNNTGQDIPGGTEFQFDIPVSAPDNAKDQSGGGLQVIASGHTRPNNIGGLDGTMHRVAFTLPAWKALPAGGVYELDMVYYLPISGPANYTVNINNVDYAFKFEQPDLPLADLSSLEHHHHHH | soluble
MQTKEKLASLSYLAVKSLLYELNLTPKPGLVDCHNNGAHNDMDFYTFLDSILSLSPFFKKYIEVGWLYHNESPQYLFNQLRKLGIEAEAAMFSATERVNTHKGINFSFALLLGATGSYLAKHIELIQEKRRFMPQDSLTICHLAGEMSMHLIQNDLSHVETKRNLTYGEKLFLQYGLKGLRGEASQGYPSLTQKALPFFRNELLKKQDIQISQLKLLLYLMTFIEDSNIIHRGGIKSWKKVQQEAQTLLEKDLPPYQLKEQLNSYNQILTDRHLSPGGAADLLSLTLYFSFLEQLI | not soluble
MQVDADLRPILGPQLVRLDPMRVKQLQDPIVYEAIDNLAKLSAHCLQLRTPLTTCEKLINSDSTLYLSWKYDEEEKVSRLMGFAKVGRKKLFLYDSQMQTYEGEILCLLDFYVHFSCQRQGVGQQILDYMFSQEHTEPYQLALDNPSVTLLGFMSQKYGLIKPVWQNTNFVVFEELFLALSAENGIEKPPPDGWRRPMTPRRLGTGMTDTRWLQHAVSGHQSKGNAMAAPVDADMTPQGALSNRAHQAKARKAHILSSKPLW | soluble
MRAERRKQLFRLLGDLPDRRPISVETLRIEEREENIVETLLLDLNGHEKAPAYFVKPKKTEGPCPAVLFQHSHGGQYDRGKSELIEGADYLKTPSFSDELTSLGYGVLAIDHWGFGDRRGKAESEIFKEMLLTGKVMWGMMIYDSLSALDYMQSRSDVQPDRIGTIGMSMGGLMAWWTAALDDRIKVCVDLCSQVDHHVLIKTQNLDRHGFYYYVPSLAKHFSASEIQSLIAPRPHLSLVGVHDRLTPAEGVDKIEKELTAVYAGQGAADCYRVVRSASGHFETAVIRHEAVRFLQKWLLEHHHHHH | not soluble
MRAIVLLSVLISCYLVIAEDYYELLGVERDADDRTIRKAFKKLAIKKHPDRNTDDPNAHDEFVKINKAYEVLKDENLRKKYDQFGEKGLEDGFQGGNNYQSWQFYNDNFGIYDDDQEIVTLNRADFQRMVSDSNEIWFINFYSTYCSHCHQLAPTWRKFAREIEGTIRVGAVNCAEDPQLCQSQRVNAYPSLVFYPTGEFYQGHRDVELMVDFAIQRLKSEVLHLNSENWKALSEDWEPYNRLPWVVDMCGGDHIDCLSSTTRRKLSSMLDGLANVATIDCNAEEALCSKFNPITSGVMWFPARKLVKKSQINIESMDAQEISKSVIQYLDELEDISVESLQRLLEGNDPDEPIAVWMLANDAQSTERKDFRRLPALVTTQIFKFDCSKSSEICDELLDKTKLPQFMVFKTTGGYEIDYAGSKDFHAASTFIREASKSHIHVLNRDSYEYAISGGEFYIIDYFAPWCPPCMKLLGEYRRFHTATSEDSMLHTVAIGSLDCVKYKDLCQQAGVQSYPTSIVYTPDGKTHKMVGYHNVDYILEFLDNSLNPSVMEMSPEQFEELVMNRKDEETWLVDFFAPWCGPCQQLAPELQKAARQIAAFDENAHVASIDCQKYAQFCTNTQINSYPTVRMYPAKKTKQPRRSPFYDYPNHMWRNSDSIQRWVYNFLPTEVVSLGNDFHTTVLDSSEPWIVDFFAPWCGHCIQFAPIYDQIAKELAGKVNFAKIDCDQWPGVCQGAQVRAYPTIRLYTGKTGWSRQGDQGIGIGTQHKEQFIQIVRQQLKLDEHDEL | not soluble
MRAMYDLLKQKADVWDLFTRKKEYQPSKLDEHGRFFFTEEDLKNASSPEVSRYLVENGLKVEFPENKTFAVCLTHDMDDIYPPFSHSLLSSVSCLKSLDFRGLTAPFLWRFKGPEYSPYLNFSDIMDLEEGFGAKSSFYFLASREDPVRFRYDIEDLENLLGDISDRGWEAGLHGGYYSYDNLEALNNEKKSLEKVLGKKVLGFRNHYLRFKTPETWELLADAGFGYDSTFGYSELAGFRNGMCHPFKPYNLNKEREINILEIPLTVMDVALFKASSSFEEAWRCTKDLIDTAAGLNGVITLLWHNFVFGCSFRKDWIKLYEKALQYCSEKGAWITSGEEIYRWWENGAMAGDPLEHHHHHH | soluble
MRAWPIHLHVGSIERSSALLVGGCNVVYGLSSHEKSNVGFGEVGSQSWIAQNRVLLFDPDGIDMPVDDRDMHVLQTRQQAPIDTRIAFQGLGVNSMQQNAGVFVGDAQITGWDQHQKSNKASGDIGGDHNVEIAGLHVNYDADGMDGVFLDSDHKAGTFVRQG | not soluble
MRCVGVGNRDFVEGVSGGAWVDLVLEHGGCVTTMAQGKPTLDFELTKTTAKEVALLRTYCIEASISNITTATRCPTQGEPYLKEEQDQQYICRRDVVDRGWGNGCGLFGKGGVVTCAKFSCSGKITGNLVQIENLEYTVVVTVHNGDTHAVGNDTSNHGVTATITPRSPSVEVKLPDYGELTLDCEPRSGIDFNEMILMKMKKKTWLVHKQWFLDLPLPWTAGADTSEVHWNYKERMVTFKVPHAKRQDVTVLGSQEGAMHSALAGATEVDSGDGNHMFAGHLKCKVRMEKLRIKGMSYTMCPGKFSIDKEMAETQHGTTVVKVKYEGAGAPCKVPIEIRDVNKEKVVGRIISSTPLAENTNSATNIELEPPFGDSYIVIGVGNSALTLHWFRKGSSIGKSLEHHHHHHHH | not soluble

Source: the DeepSol protein solubility set
